Source: the DeepSol protein solubility set

Assay: soluble on expression in E. coli; label from the status in PepcDB or PDB records

| Sequence | soluble on expression in E. coli |
| --- | --- |
| MKKFAAVIAVMALCSAPVMAAEQGGFSGPSATQSQAGGFQGPNGSVTTVESAKSLRDDTWVTLRGNIVERISDDLYVFKDASGTINVDIDHKRWNGVTVTPKDTVEIQGEVDKDWNSVEIDVKQIRKVNP | soluble |
| MKKFCLSYSSGKDCLLAMDRLVQAGNQPVALVTTLSDEINRSWFHGIPISVLEAAAEALDLPLVISHNNETNYTEKVVEALQETKKLGAETVCFGDIDIEQNGAWDRQVALSAGLEPQLPLWQENREALVKEFLAKGYTAIIKTVSKEAGIPIKFLGEPLNETFITYLKEHQLDICGENGEYHTLVIDGPLFKKRLNYYTSGIYESPYAYSLIIDALEHHHHHH | soluble |
| MKKFFQEIKADIKFKSAGPGQKLTDSAGEKTTKGKSPQLALRQPRQGPTDEAQMAAAAALARLEQKQPRARGPTSQDSIRNQVRKELQAEATSSNNPGAPGTNSVPEPKEEISPHLAVPGVFFICPLTGVTLRRDQRDAHIKQAILSHFSTDPVAASIMKIHTFNRDRDRVKLGVDTIAKYLDNIHLHPEEEKYQKIKLQNKVFQERINCLEGSHEFFEAIGFKKVTLPVPDQEGQEEFYVLGEDARAQPQNLARHKQQLLDAEPVRATLDRQLRVFRPSALASHFELPSDFFSLTAEEVKREQRLRTEAVERLSSLRTKAMREKEEQRELRKYTYALVRVRLPDGCLLQGTFYAREKLSALFRFVREALQNDWLPFELRASGGQKLEENEALALNECGLVPSALLTFSWDASVLEDIRAAGAEPAKSVLRPELLAAIEQLS | soluble |
| MKKFIGSVLTTTLILGGCSAMENESNKDTNTETKSVPEEMEASKYVGQGFQPPAEKDAIEFAKKHRKEFEKVGEQFFKDNFGLKVKATNVVGKDDGVEVYVHCEDHGIVFNASLPLYKDAIHQKGSMRSNDNGDDMSMMVGTVLSGFEYRAQKEKYDNLYKFFKENEKKYQYTGFTKEAINKTQNVGYQNEYFYITYLSRNLKEYRKYYEPLIHKNDKEFKEGMQQARKELDYTANTDAVSTLFSTKKNFTKDNTVDDVIELSNKLKEKPNMPQKSQVTIQLGKSSINTKKPFYDDINPIEGLEHHHHHH | not soluble |
| MKKFTLEEFLDLLKKYNVEEIEGVKIEGDLEIEFEGSSIDLSAIAPLYSMLSEFGNFLYHANMALGYLQRLSAALGIPTPFAAQPQLAPAAPAAPAEVPAVEELKIPAELVRAKFEPYKEEYPGKIEEVVLGATKADGGTREYTVTLGGERSLAFYTFDAPQPHLPAIAIDVFDRRPMLAKAVRMHYEDVLDNPAEWARKCVKKFGADLVTLHLISTDPLLDDTPASEAVKVLEDVLQAVKCPIIVGGSGNKEKDPEVLEKAAEVAEGERIMLASATLDMDWERIANAAKKYGHVVLSWTQMDINNQKTLNRYLLKRVEMPRDSIVMDPTTAALGYGLDYAFTNMERIRISGLKGDTDLNFPISSGTTNAWGAREAWMVDSPIEEDTPWGPRELRGPIWEIITGLTLSLAGVDLFMMMHPVAVAVLKEVFNTLGGKVSGGVADPGEWIFMEV | not soluble |
| MKKISRKEYVSMYGPTTGDKVRLGDTDLIAEVEHDYTIYGEELKFGGGKTLREGMSQSNNPSKEELDLIITNALIVDYTGIYKADIGIKDGKIAGIGKGGNKDMQDGVKNNLSVGPATEALAGEGLIVTAGGIDTHIHFISPQQIPTAFASGVTTMIGGGTGPADGTNATTITPGRRNLKWMLRAAEEYSMNLGFLAKGNASNDASLADQIEAGAIGFKIHEDWGTTPSAINHALDVADKYDVQVAIHTDTLNEAGCVEDTMAAIAGRTMHTFHTEGAGGGHAPDIIKVAGEHNILPASTNPTIPFTVNTEAEHMDMLMVCHHLDKSIKEDVQFADSRIRPQTIAAEDTLHDMGAFSITSSDSQAMGRVGEVITRTWQTADKNKKEFGRLKEEKGDNDNFRIKRYLSKYTINPAIAHGISEYVGSVEVGKVADLVLWSPAFFGVKPNMIIKGGFIALSQMGDANASIPTPQPVYYREMFAHHGKAKYDANITFVSQAAYDKGIKEELGLERQVLPVKNCRNVTKKDMQFNNTTAHIEVNPETYHVFVDGKEVTSKPANKVSLAQLFSIF | soluble |
| MKKITINDLMKWKQEGRKFATSTAYDASFAQLFESQEMPVLLVGDSLGMVLQGETDTLPVTVDDIAYHTRCVRKGSPNCLLMADMPFMSYATPEQACENAAKLVRAGANMVKIEGGDWLVDTVKMLTERAVPVCAHLGLTPQSVNIFGGYKVQGREQDKADRMVRDALALQEAGAQIVLLECVPAELANRITQILDVPVIGIGAGNGTDGQILVMHDMFGISANYMPKFSKNFLAETGDIRQAVAKYIEDVASGAFPDLAHTIALEHHHHHH | soluble |
| MKKKIIIAIVASAITMTHFVGNTYADSKTEVSVTAPYNTNQIAKWLEAHAKPLKTTNPTASLNDLKPLKNMVGSASIVGLGEATHGAHEVFTMKHRIVKYLVSEKGFTNLVLEEGWDRALELDRYVLTGKGNPSQHLTPVFKTKEMLDLLDWIRQYNANPKHKSKVRVIGMDIQSVNENVYNNIIEYIKANNSKLLPRVEEKIKGLIPVTKDMNTFESLTKEEKEKYVLDAKTISALLEENKSYLNGKSKEFAWIKQNARIIEQFTTMLATPPDKPADFYLKHDIAMYENAKWTEEHLGKTIVWGHNGHVSKTNMLSFIYPKVAGQHLAEYYGKRYVSIGTSVYEGQYNVKNSDGEFGPYGTLKSDDPNSYNYIFGQVKKDQFFIDLRKANGVTKTWLNEQHPIFAGITTEGPDIPKTVDISLGKAFDILVQIQKVSPSQVHQLEHHHHHH | soluble |
| MKKKIIKKKSAAAPASKIPDDFEMPMARVADEDDVAEDYKVVDMSEIAAPIIEFEMPNLVEKSPEEFKNSEVTGEASREVSVKTPKKVTKRVRKSSKTDKTDQIPLTAEKLNNELVALRATCLTAKNQLMSRIVRQKKQLESKKSQKVDGKSKEERDRKIARLVEEILGLKTFDKDSVAKFAALNTKSLAELKINGKTEVAERLMYKLVCQSIIVEKIQSIREKYTEWNKTAAFFMQRLGQQYANKPEKKSKKSTEKKELNIENLEDLNNEDEDSENEKEEEIEENEEDYDQSDIEMLDSDEEEAGEEAAKNRRNLLLGLIGVQEDKNRPSLAPKKRKLVEEEDEEVETVKNQKKMKQIFEKELKSKEVKNPKKSNKSTKKPTKSAPIVKKVEEKKVEENEVSDDESDQKTLVMKVDLSKGGKIAKAQKFSTTAPKSAKIVAPVSEDENDDDESSSFFLPKSGVVAPRKIIPKKPSENVEKVDKRFQKGTQKKSEAVVEKKKGSSKSAVSGEMHPSWIASQLKKKELASAKPCGKKITFGDDEEE | not soluble |
| MKKKPLTPEQLDDAKRLKELFNAKKKALGISQESVAHELGVGQSAVNQFLNGVNPLNITNAAAFAKVLNEPISSFSPSLAKELAKMAESLSITTRSGAKDKPAVSVANSYPLISWISAGNWYEAIEPYTLRDIEIWPESTKHAHESAFWLSVKGDSMTSPSGISFPEGMIILVDPEKEPMPGNFVIAKLTDDNEATFKKLVVDAGIKYLKPLNPAYRLIELNGNCKILGVVVDARWLQID | not soluble |
| MKKKQVMLALTAAAGLGLTALHSAPAAKAAPLHDISVSMPSSDTYIIKAGKLNVRTEPNHEGDILGTVSSEQKVKVDRFVNADWAQIHFKGKKAYISTHFLMKTASQAKTTKQTAFYTPTPENGKAKQLSSGTEVTILGWGFSENGGFDFTWAFVDYGGVKGYIHTKDLQMRLEHHHHHH | soluble |
| MKKLAFAVTVASGAAAVIANHEADASTQHTVKSGESLWSISQQYGVSVDEIKQSNDINNNMVFPGQVIEIGGSSSQESGSTSNNTSNGSSHTVQSGESLNIIANQYGVSVDEIIAANNLNGYLIHPNQTLTIPGTTGTGGSGGTATETPSSNTGGSTASDANLYDWGQCTWHVFNRRAETGQPISTYWWNADHWANNASADGYTVNNAPTAGSIMQNYEGPVGHVAYVERVNPDGSILISEMNYNTPPGTVDYRTIPASQASSYNYIHLEHHHHHH | not soluble |
| MKKLLLSILFVGGGLISLSNNFTGPRYRVDISTGFIDDRRFALTSGYKFFSGSVSVLPEWELKFNKKFDISFGPKVSLNFENFIGSMDATTINPSIILGGEIDFNYKVIEDVKIYAGMEVGTGIGFQAFVSSSHNHFQGPELKTESKISLGVKVKDKFNLAFYTGDIKGVIGVEAGYTF | not soluble |
| MKKPVYLTPEGYRRLQEELNHLKTVKRQEISADFEQALEEGDLRENAGYDEARRAMWQNEARIAQLEDLLSRAVIVENGSFDQVALGCQVELETETGERLSLAIVGSHEADIFSGKISDESPLGQALLGKKVGDVVEIRGKKGAQVYTILEIKPL | soluble |
| MKKSSEVMHQACDACRKKKWKCSKTVPTCTNCLKYNLDCVYSPQVVRTPLTRAHLTEMENR | soluble |
| MKKTYVLDTNVLLQDPHAIFAFQDNEVVIPAVVLEEVDSKKRYMDEIGRNARHFSKLIDQLRGLGKLHEGVPLENGGKLRIELNHKSYEKVKDSFAEMTNDNRIIAVALNLSLEETEKPNGNQVILVSKDALVRVKADALRLKAEDFLNDRVIQYDRGY | not soluble |
| MKKWWLAAVVAMIAVGGCAKEETEQKQSLQGANLLRTQTSGTAKHAELNQGPAERAASYLRGRDDVRDVVAVNSEDRLLIAYQIPHMKRWSRKQIEKDIDQKLRDLFPGYDVVSSSDLKIFWKTKELKANMDNRRWDERKVNREIRRIEKLSKEQT | not soluble |
| MKKYLFAEQGFVEKPDFGADCWVCVETPDAEDMKFLIDTLNVPEDFLSDIADADERPRVEHDGDWHLTILRIPIESRLSGVPYVTVPMGIATRSDVTVSVCYHRAPMLADFLLHTRRKRIKVLNRTELVLRLIYSSAVWFLKYLKQINNEVTISERELERSIRNEDLIHLMMLQKTLVYFSTSIRGNEAVLGKIRASGENRIDEELVEDVRIELRQAYNTVNIYSDILSGTTEALSGVISNNLNTIMKR | not soluble |
| MKLACKIYNTLRWADIYFYQRDGKGLTQTELRQLALDLRKQDDEYKQLYSQVVQQIADRYYEARQRFFEGLARFPKEKKPHKYYSLVYPQYGWKILQVREIRKGSKKNKKRLITLKLSNLGTFKVIIHRDFPLDKVKRVVVKLTRSERIYITFVVEDYEFPKLPNTGKVVAIDVGIEKLIVTSDGEYFPNLRPYEKALWKVKHLHRELSRKKFLSNNWFKAKVKLARAYEHLKNLRTDLYMKLGKWFAEHYDVVVMEDIHVKQLIGKSLRSLRRRLSDVAFSELRDLIKYQLEKYGKKLILVNPAYTSKTCARCGYVKEDLSLSDRVFVCSNCGWIADRDYNASLNILRGSGSERPLVWSSALYQYQHFGTGMAELLEHHHHHH | soluble |
| MKLALFDLDNTLLAGDSDFQWAQFLIEQQVLDREVYEARNIEFYEQYKAGTLDIHEFLDFQLKPLSRHPREQLNTWRSDFIERKIAPLIAPGARELIARHQAEKDLCIIITATNSFVTAPIARMLGIDHLIATEPEQKNGEFTGRVTGIPSFQAGKITRLEQWLDAHNLTWLSFLQSWFYSDSLNDLPLLKRVTHPVAVDPDATLHEHAKKSGWPIISLRQ | not soluble |
| MKLEASCGTATSEVPKPEKKTARDAEPSSETRPQEVEAEPRSGSGPEAEAEPLDFVVATERESEEVLAISGGIYGGLDYLPSRYHSWLRDPDRTVVLAKRNGGVIALESVNVIDAGETVLVEGLRVAPWERGKGVAGLLQRFCSQLVKRQHPGVKVARLTRDDQLGPRELKKYRLITKQGILLVRFNASALLAGLGARLAALRTSGTFSPLPTEAVSEAGGDVARLLLSPSVQRDVLPGGTIIQDWQPYRPSESNLRLLAAKGLEWRVDSRARPRVLTLCTRPFPIPHGGDGTWRYLNIDAFGSDGAQVQSQLLWHLQRQAPRLVGLNVMCQLFLEPQLWSQLADFCQVGLGLELVKGYTEQYLLEADI | soluble |
